According to the supplement of paper PMC9112550, “Optimization of the antimicrobial peptide Bac7 by deep mutational scanning” (BMC Biology, 2022):

System: Escherichia coli TOP10
Assay: shrunken log2 fold change of peptide-encoding DNA abundance (4.5 h post-induction vs induction); higher = less antimicrobial activity (less host growth inhibition)
Settings: time post-induction: 4.5 h; library: site-saturation at positions 5, 18, 19, 20
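Further: peptides expressed intracellularly from a pBAD plasmid library in pooled LB shake-flask culture, induced with 0.3% L-arabinose, DNA abundance read by NGS, three biological replicates, DESeq2 with apeglm shrinkage.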

Sequence	shrunken log2 fold change
RRIRGRPPRLPRPRPRPRPQPRP	0.863
RRIRGRPPRLPRPRPRPKCPPRP	0.625
RRIRSRPPRLPRPRPRPVYSPRP	-0.0582
RRIRNRPPRLPRPRPRPSWSPRP	-0.0724
RRIRWRPPRLPRPRPRPQDRPRP	-0.0199
RRIRARPPRLPRPRPRPVMWPRP	0.555
RRIRIRPPRLPRPRPRPTPHPRP	0.788
RRIRYRPPRLPRPRPRPCQAPRP	-0.269
RRIRDRPPRLPRPRPRPRVNPRP	-0.149
RRIRLRPPRLPRPRPRPATMPRP	-0.366
RRIRCRPPRLPRPRPRPLQDPRP	0.0354
RRIRSRPPRLPRPRPRPSYSPRP	0.232
RRIRQRPPRLPRPRPRPHHLPRP	-0.122
RRIRSRPPRLPRPRPRPDCGPRP	0.0769
RRIRPRPPRLPRPRPRPPQKPRP	0.19
RRIRLRPPRLPRPRPRPCIRPRP	-0.265
RRIRGRPPRLPRPRPRPEWIPRP	0.142
RRIRIRPPRLPRPRPRPLIEPRP	-0.475
RRIRMRPPRLPRPRPRPTEIPRP	-0.0223
RRIRDRPPRLPRPRPRPCTYPRP	-0.0116
RRIRVRPPRLPRPRPRPRMFPRP	-0.0394
RRIRARPPRLPRPRPRPWCSPRP	-0.155
RRIRGRPPRLPRPRPRPFKRPRP	0.301
RRIRGRPPRLPRPRPRPYNEPRP	-0.329
RRIRNRPPRLPRPRPRPVCPPRP	-0.14

Sequence	shrunken log2 fold change
RRIRERPPRLPRPRPRPECLPRP	-0.137
RRIRKRPPRLPRPRPRPEWGPRP	0.755
RRIRHRPPRLPRPRPRPQDQPRP	0.0969
RRIRRRPPRLPRPRPRPIKWPRP	0.0148
RRIRNRPPRLPRPRPRPQDIPRP	-0.252
RRIRLRPPRLPRPRPRPTPMPRP	0.143
RRIRRRPPRLPRPRPRPHAEPRP	0.317
RRIRLRPPRLPRPRPRPMYAPRP	-0.248
RRIRVRPPRLPRPRPRPAKPPRP	0.296
RRIRMRPPRLPRPRPRPHKWPRP	0.216
RRIRPRPPRLPRPRPRPTPSPRP	0.312
RRIRCRPPRLPRPRPRPKALPRP	0.0255
RRIRSRPPRLPRPRPRPWMVPRP	-0.267
RRIRERPPRLPRPRPRPKWSPRP	-0.146
RRIRARPPRLPRPRPRPMWHPRP	0.131
RRIRDRPPRLPRPRPRPSWVPRP	-0.211
RRIRKRPPRLPRPRPRPIEGPRP	-0.00926
RRIRPRPPRLPRPRPRPKNDPRP	-0.108
RRIRPRPPRLPRPRPRPLLKPRP	0.593
RRIRIRPPRLPRPRPRPEMMPRP	0.0516
RRIRSRPPRLPRPRPRPDIEPRP	0.0454
RRIRKRPPRLPRPRPRPWTPPRP	0.246
RRIRGRPPRLPRPRPRPEADPRP	1
RRIRPRPPRLPRPRPRPNVWPRP	0.183
RRIRWRPPRLPRPRPRPKWNPRP	-0.095

Sequence	shrunken log2 fold change
RRIRNRPPRLPRPRPRPPLVPRP	0.089
RRIRKRPPRLPRPRPRPKAPPRP	0.62
RRIRERPPRLPRPRPRPQMPPRP	-0.292
RRIRARPPRLPRPRPRPWHVPRP	-0.0219
RRIRQRPPRLPRPRPRPHWLPRP	-0.222
RRIRMRPPRLPRPRPRPLDIPRP	-0.0561
RRIRMRPPRLPRPRPRPRRLPRP	0.817
RRIRRRPPRLPRPRPRPCMRPRP	0.264
RRIRPRPPRLPRPRPRPFSPPRP	-0.266
RRIRLRPPRLPRPRPRPKMQPRP	0.282
RRIRYRPPRLPRPRPRPRLQPRP	0.196
RRIRIRPPRLPRPRPRPGVIPRP	-0.0127
RRIRSRPPRLPRPRPRPFRAPRP	-0.0568
RRIRKRPPRLPRPRPRPQLEPRP	0.327
RRIRHRPPRLPRPRPRPYWVPRP	-0.26
RRIRGRPPRLPRPRPRPHPDPRP	0.502
RRIRRRPPRLPRPRPRPAVFPRP	0.45
RRIRCRPPRLPRPRPRPDCVPRP	0.184
RRIRGRPPRLPRPRPRPNRSPRP	-0.0578
RRIRSRPPRLPRPRPRPKDPPRP	0.226
RRIRPRPPRLPRPRPRPNRNPRP	-0.352
RRIRYRPPRLPRPRPRPVDNPRP	-0.0156
RRIRRRPPRLPRPRPRPVIQPRP	0.177
RRIRNRPPRLPRPRPRPRAPPRP	0.972
RRIRIRPPRLPRPRPRPECGPRP	-0.118

Sequence	shrunken log2 fold change
RRIRKRPPRLPRPRPRPEMSPRP	0.325
RRIRERPPRLPRPRPRPNKMPRP	-0.324
RRIRPRPPRLPRPRPRPREDPRP	0.134
RRIRERPPRLPRPRPRPFDTPRP	-0.267
RRIRKRPPRLPRPRPRPILQPRP	0.0319
RRIRWRPPRLPRPRPRPSAKPRP	0.833
RRIRHRPPRLPRPRPRPWCNPRP	-0.417
RRIRNRPPRLPRPRPRPHLAPRP	0.131
RRIRTRPPRLPRPRPRPWAVPRP	-0.0894
RRIRDRPPRLPRPRPRPSEIPRP	-0.167
RRIRARPPRLPRPRPRPVVVPRP	0.652
RRIRLRPPRLPRPRPRPCGMPRP	-0.0649
RRIRHRPPRLPRPRPRPTPPPRP	0.391
RRIRHRPPRLPRPRPRPFSSPRP	0.107
RRIRRRPPRLPRPRPRPHTDPRP	-0.215
RRIRMRPPRLPRPRPRPSFYPRP	-0.29
RRIRQRPPRLPRPRPRPHMKPRP	-0.0294
RRIRDRPPRLPRPRPRPKQDPRP	0.172
RRIRARPPRLPRPRPRPEHMPRP	0.137
RRIRNRPPRLPRPRPRPINHPRP	-0.705
RRIRDRPPRLPRPRPRPCGEPRP	0.488
RRIRRRPPRLPRPRPRPNVYPRP	0.0361
RRIRLRPPRLPRPRPRPILCPRP	-0.152
RRIRLRPPRLPRPRPRPREEPRP	-0.0235
RRIRGRPPRLPRPRPRPKGAPRP	1.06

Sequence	shrunken log2 fold change
RRIRLRPPRLPRPRPRPGYLPRP	-0.282
RRIRVRPPRLPRPRPRPDYCPRP	-0.207
RRIRFRPPRLPRPRPRPMWRPRP	-0.0033
RRIRMRPPRLPRPRPRPDIKPRP	1.51
RRIRKRPPRLPRPRPRPARSPRP	0.89
RRIRLRPPRLPRPRPRPNMTPRP	-0.0555
RRIRIRPPRLPRPRPRPGFHPRP	0.876
RRIRLRPPRLPRPRPRPIRGPRP	-0.0599
RRIRYRPPRLPRPRPRPYKSPRP	0.0233
RRIRVRPPRLPRPRPRPGQFPRP	-0.156
RRIRARPPRLPRPRPRPMPTPRP	0.866
RRIRMRPPRLPRPRPRPMPRPRP	0.561
RRIRIRPPRLPRPRPRPPGWPRP	0.527
RRIRNRPPRLPRPRPRPGQPPRP	0.0308
RRIRWRPPRLPRPRPRPPFRPRP	0.632
RRIRHRPPRLPRPRPRPYMFPRP	-0.319
RRIRIRPPRLPRPRPRPWPDPRP	-0.207
RRIRLRPPRLPRPRPRPDRPPRP	0.265
RRIRERPPRLPRPRPRPNFQPRP	0.0442
RRIRRRPPRLPRPRPRPDATPRP	1.32
RRIRPRPPRLPRPRPRPYNQPRP	-0.429
RRIRERPPRLPRPRPRPWHHPRP	-0.326
RRIRDRPPRLPRPRPRPRYCPRP	-0.351
RRIRYRPPRLPRPRPRPNWHPRP	-0.575
RRIRCRPPRLPRPRPRPAPHPRP	0.625

Sequence	shrunken log2 fold change
RRIRQRPPRLPRPRPRPWGYPRP	-0.166
RRIRRRPPRLPRPRPRPISIPRP	-0.0402
RRIRGRPPRLPRPRPRPCFRPRP	0.0644
RRIRFRPPRLPRPRPRPNIEPRP	-0.288
RRIRSRPPRLPRPRPRPGSLPRP	-0.0216
RRIRNRPPRLPRPRPRPCNFPRP	-0.0737
RRIRHRPPRLPRPRPRPVQLPRP	-0.0712
RRIRYRPPRLPRPRPRPLHCPRP	-0.724
RRIRYRPPRLPRPRPRPIEYPRP	-0.0912
RRIRNRPPRLPRPRPRPIVKPRP	-0.339
RRIRGRPPRLPRPRPRPSNEPRP	0.131
RRIRMRPPRLPRPRPRPAYGPRP	-0.00861
RRIRARPPRLPRPRPRPPCYPRP	0.146
RRIRARPPRLPRPRPRPIHKPRP	-0.0416
RRIRNRPPRLPRPRPRPDHFPRP	-0.0062
RRIRYRPPRLPRPRPRPPFYPRP	-0.789
RRIRFRPPRLPRPRPRPRHLPRP	-0.0297
RRIRCRPPRLPRPRPRPLIPPRP	-0.366
RRIRHRPPRLPRPRPRPQHNPRP	0.22
RRIRARPPRLPRPRPRPHKCPRP	-0.205
RRIRIRPPRLPRPRPRPSAGPRP	-0.334
RRIRKRPPRLPRPRPRPKWNPRP	0.392
RRIRFRPPRLPRPRPRPDRDPRP	-0.119
RRIRARPPRLPRPRPRPYNQPRP	-0.306
RRIRERPPRLPRPRPRPHEKPRP	-0.00663
